Data reported in PMC12615485, “New dengue virus inhibitors targeting NS3-NS5 interaction identified by in silico screening” (Frontiers in Microbiology, 2025).

How the values were obtained:
[1] = target: 6His-NS5 RdRp(270-900) of DENV-2 NGC strain (DENV-2 NGC strain); assay: ELISA
[2] = target: NHS-NS5(270-900): 6His-NS5 RdRp(270-900) labelled with RED-NHS (DENV-2 NGC strain); assay: MST

| Substance | IC50 [1] [µM] | Kd [2] [µM] |
| --- | --- | --- |
| NS3(566-585) peptide of DENV-2 | 127 |  |
| 6His-NS3(177-618), helicase portion of NS3 (domain or fragment) |  | 7.2 |
